Substitutions are numbered along the chain they refer to. Numbers in names are those of the source.
T1: Human latent myostatin (human, UniProt O14793 25-266; O14793 267-375)
T1 construct: Biotinylated in the ELISAs; also called human myostatin latent form
T1 sequence 1: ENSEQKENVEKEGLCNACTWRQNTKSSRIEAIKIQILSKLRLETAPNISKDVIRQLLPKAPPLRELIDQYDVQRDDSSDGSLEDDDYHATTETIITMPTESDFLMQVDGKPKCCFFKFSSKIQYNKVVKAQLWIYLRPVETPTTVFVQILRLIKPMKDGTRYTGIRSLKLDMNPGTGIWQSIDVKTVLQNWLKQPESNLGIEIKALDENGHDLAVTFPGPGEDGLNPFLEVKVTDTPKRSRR
T1 sequence 2: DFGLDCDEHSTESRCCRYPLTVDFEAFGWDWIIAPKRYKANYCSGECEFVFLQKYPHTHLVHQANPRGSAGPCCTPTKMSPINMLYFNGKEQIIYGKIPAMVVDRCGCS

T2: cynomolgus monkey FcγRIIb extracellular domain, C-terminal His-tag (cynomolgus monkey)
T2 construct: also called cyno FcγRIIb; cynoFcγRIIb
T2 chain: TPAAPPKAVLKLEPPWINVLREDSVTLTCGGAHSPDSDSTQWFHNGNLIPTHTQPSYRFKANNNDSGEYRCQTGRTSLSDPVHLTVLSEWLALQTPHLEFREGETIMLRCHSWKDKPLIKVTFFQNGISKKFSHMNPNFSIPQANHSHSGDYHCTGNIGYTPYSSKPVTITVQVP

T3: cynomolgus monkey FcγRIIa2 extracellular domain, C-terminal His-tag (cynomolgus monkey)
T3 construct: also called cyno FcγRIIa2; FcgRIIa2
T3 chain: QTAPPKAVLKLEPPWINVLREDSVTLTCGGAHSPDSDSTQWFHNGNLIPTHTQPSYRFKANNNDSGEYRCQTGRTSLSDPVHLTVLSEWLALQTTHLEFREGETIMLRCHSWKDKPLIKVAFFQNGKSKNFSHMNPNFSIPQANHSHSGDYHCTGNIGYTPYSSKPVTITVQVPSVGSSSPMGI

T4: cynomolgus monkey FcγRIIIaS extracellular domain, C-terminal His-tag (cynomolgus monkey, UniProt Q8SPW2 21-206 at identity 1.00))
T4 construct: also called cyno FcγRIIIaS; FcgRIIIaS
T4 chain: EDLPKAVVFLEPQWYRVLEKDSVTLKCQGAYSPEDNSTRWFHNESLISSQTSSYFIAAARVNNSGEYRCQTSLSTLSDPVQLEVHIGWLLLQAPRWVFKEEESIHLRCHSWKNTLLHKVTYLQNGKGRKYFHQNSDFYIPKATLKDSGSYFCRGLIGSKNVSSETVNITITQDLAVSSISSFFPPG

T5: cynomolgus monkey FcγRIIa3 extracellular domain, C-terminal His-tag (cynomolgus monkey)
T5 construct: also called cyno FcγRIIa3; FcgRIIa3
T5 chain: T3 chain with K127I, N130K, H133P, Q142R

T6: cynomolgus monkey FcγRIIa1 extracellular domain, C-terminal His-tag (cynomolgus monkey)
T6 construct: also called cyno FcγRIIa1; FcgRIIa1
T6 chain: T3 chain with T95P, A121T, K127I, S128A, N130K, N135D, Q142R

B1: MS_M103205H707-SG1/M103202L802-SK1 (antibody, human IgG1, kappa, V domains shown)
VH: QVTLKESGPVLVKPTETLTLTCTVSGIDLSHYDISWVRQAPGKGLEWVGIISYAGSTYYASWAKGRLTISKDTSKNQVVLTMTNMDPVDTATYYCARGVPAYSHGGDLWGQGTLVTVSS
VL: DIVMTQSPATLSLSPGERATLSCTSSQSVYHDNWLSWFQQKPGQPPKLLIYWASTLAYGVPSRFSGSGSGTDFTLTISSLQPEDAATYYCAGGYGGGLYAFGQGTKVEIKR
notes: also called MS1032LO04-SG1; MSLO-04
B2: M103205H795-MY001/M103202L889-SK1 (antibody, human IgG1, kappa)
heavy: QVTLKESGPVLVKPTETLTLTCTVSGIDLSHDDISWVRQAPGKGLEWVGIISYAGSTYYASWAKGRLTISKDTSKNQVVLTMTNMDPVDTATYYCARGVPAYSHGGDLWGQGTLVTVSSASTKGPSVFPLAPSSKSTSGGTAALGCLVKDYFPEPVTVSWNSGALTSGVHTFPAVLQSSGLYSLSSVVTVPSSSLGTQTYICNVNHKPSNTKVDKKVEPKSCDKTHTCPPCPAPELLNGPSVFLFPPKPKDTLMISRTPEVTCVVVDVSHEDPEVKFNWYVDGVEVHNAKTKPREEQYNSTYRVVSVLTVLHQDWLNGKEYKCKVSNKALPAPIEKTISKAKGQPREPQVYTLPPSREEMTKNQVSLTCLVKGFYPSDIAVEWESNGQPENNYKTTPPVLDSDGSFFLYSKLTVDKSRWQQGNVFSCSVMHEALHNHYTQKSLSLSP
light: DIVMTQSPATLSLSPGERATLSCTSSQSVYHANWLSWFQQKPGQPPKLLIYWASTLAYGVPSRFSGSGSGTDFTLTISSLQPEDAATYYCAGGYGGGRYAFGQGTKVEIKRTVAAPSVFIFPPSDEQLKSGTASVVCLLNNFYPREAKVQWKVDNALQSGNSQESVTEQDSKDSTYSLSSTLTLSKADYEKHKVYACEVTHQGLSSPVTKSFNRGEC
notes: also called G236N
B3: M103205H795-SG166/M103202L889-SK1 (antibody, human IgG1, kappa)
heavy: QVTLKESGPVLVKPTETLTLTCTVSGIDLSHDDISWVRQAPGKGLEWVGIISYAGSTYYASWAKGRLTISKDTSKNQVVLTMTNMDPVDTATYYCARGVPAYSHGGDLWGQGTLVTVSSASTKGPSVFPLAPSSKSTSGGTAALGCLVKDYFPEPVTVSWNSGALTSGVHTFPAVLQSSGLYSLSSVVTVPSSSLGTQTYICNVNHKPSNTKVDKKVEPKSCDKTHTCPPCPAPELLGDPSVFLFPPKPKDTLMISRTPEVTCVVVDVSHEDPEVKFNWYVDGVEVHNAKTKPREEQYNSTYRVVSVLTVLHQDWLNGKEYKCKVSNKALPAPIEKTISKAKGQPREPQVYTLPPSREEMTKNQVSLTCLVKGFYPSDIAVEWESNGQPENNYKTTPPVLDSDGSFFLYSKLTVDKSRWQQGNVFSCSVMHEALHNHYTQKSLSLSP
light: B2 light
notes: also called G237D
B4: M103205H795-SG167/M103202L889-SK1 (antibody, human IgG1, kappa)
heavy: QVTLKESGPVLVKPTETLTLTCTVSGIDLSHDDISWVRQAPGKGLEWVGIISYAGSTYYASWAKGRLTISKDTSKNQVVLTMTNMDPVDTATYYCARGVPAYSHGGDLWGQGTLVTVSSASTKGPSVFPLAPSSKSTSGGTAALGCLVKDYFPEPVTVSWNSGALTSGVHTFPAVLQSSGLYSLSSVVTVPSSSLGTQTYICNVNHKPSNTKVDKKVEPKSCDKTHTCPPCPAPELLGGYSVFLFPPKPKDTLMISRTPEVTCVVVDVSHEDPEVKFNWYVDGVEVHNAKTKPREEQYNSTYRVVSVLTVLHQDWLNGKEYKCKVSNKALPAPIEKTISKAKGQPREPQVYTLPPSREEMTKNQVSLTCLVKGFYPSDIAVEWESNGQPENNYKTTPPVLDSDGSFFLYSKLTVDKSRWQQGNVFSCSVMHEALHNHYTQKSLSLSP
light: B2 light
notes: also called P238Y
B5: M103205H795-SG168/M103202L889-SK1 (antibody, human IgG1, kappa)
heavy: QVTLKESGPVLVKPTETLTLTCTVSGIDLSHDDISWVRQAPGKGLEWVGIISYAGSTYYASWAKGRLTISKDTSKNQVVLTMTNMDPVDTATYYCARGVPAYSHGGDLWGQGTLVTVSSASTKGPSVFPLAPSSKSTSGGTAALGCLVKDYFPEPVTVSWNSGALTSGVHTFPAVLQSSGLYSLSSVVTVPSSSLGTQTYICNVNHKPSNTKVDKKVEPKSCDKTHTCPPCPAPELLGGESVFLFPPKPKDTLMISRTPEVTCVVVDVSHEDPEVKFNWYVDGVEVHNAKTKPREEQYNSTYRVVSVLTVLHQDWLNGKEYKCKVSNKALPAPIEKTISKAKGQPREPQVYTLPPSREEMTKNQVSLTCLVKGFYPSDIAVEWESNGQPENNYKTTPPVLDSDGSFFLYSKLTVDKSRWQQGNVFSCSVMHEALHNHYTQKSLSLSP
light: B2 light
notes: also called P238E
B6: M103205H795-SG169/M103202L889-SK1 (antibody, human IgG1, kappa)
heavy: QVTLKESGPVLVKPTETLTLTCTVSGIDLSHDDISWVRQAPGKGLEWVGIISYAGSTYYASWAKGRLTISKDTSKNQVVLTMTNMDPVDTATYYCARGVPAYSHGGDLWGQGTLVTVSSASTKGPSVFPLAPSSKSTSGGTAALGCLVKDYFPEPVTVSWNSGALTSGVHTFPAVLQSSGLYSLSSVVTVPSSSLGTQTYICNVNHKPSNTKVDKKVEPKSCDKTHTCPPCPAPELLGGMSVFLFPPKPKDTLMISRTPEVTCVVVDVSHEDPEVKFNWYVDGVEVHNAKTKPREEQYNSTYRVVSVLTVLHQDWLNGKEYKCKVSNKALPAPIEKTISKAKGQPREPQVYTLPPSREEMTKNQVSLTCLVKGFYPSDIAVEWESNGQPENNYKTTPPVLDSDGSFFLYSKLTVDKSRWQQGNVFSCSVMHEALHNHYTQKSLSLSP
light: B2 light
notes: also called P238M
B7: M103205H795-SG170/M103202L889-SK1 (antibody, human IgG1, kappa)
heavy: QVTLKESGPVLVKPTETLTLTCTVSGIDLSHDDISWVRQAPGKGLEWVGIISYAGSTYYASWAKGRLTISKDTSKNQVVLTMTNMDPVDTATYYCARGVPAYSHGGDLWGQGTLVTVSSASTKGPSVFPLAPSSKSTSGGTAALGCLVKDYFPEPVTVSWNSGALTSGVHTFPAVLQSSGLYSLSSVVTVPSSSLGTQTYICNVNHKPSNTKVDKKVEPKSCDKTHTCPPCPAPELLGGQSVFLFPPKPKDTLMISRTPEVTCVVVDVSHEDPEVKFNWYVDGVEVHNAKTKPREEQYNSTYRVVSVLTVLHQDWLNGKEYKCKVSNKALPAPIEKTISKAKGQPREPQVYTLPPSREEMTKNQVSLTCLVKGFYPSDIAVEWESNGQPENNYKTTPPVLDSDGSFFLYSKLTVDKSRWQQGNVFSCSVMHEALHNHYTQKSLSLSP
light: B2 light
notes: also called P238Q
B8: M103205H795-SG172/M103202L889-SK1 (antibody, human IgG1, kappa)
heavy: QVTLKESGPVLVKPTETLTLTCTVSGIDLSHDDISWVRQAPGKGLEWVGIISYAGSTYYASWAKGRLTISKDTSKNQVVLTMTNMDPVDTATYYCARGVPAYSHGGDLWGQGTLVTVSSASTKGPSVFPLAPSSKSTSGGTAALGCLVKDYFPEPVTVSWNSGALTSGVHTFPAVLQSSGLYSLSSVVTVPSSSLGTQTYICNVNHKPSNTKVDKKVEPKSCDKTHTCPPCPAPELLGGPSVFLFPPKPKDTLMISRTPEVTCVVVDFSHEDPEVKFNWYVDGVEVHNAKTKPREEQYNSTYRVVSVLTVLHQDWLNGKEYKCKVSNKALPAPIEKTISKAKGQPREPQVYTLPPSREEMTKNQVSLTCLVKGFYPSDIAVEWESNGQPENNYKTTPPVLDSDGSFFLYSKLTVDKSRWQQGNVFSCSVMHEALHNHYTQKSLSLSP
light: B2 light
notes: also called V266F
B9: M103205H795-SG173/M103202L889-SK1 (antibody, human IgG1, kappa)
heavy: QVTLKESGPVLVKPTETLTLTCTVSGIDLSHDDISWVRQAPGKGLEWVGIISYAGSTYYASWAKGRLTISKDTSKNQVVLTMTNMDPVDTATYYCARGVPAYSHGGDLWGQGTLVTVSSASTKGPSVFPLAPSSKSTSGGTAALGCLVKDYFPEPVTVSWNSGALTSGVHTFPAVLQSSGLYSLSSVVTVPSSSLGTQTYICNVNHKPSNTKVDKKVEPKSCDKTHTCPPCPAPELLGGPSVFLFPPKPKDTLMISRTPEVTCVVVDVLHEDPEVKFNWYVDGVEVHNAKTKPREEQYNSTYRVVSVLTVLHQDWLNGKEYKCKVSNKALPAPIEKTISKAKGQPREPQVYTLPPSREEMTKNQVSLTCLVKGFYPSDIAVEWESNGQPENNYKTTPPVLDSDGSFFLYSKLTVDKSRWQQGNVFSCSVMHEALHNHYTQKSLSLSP
light: B2 light
notes: also called S267L
B10: M103205H795-SG174/M103202L889-SK1 (antibody, human IgG1, kappa)
heavy: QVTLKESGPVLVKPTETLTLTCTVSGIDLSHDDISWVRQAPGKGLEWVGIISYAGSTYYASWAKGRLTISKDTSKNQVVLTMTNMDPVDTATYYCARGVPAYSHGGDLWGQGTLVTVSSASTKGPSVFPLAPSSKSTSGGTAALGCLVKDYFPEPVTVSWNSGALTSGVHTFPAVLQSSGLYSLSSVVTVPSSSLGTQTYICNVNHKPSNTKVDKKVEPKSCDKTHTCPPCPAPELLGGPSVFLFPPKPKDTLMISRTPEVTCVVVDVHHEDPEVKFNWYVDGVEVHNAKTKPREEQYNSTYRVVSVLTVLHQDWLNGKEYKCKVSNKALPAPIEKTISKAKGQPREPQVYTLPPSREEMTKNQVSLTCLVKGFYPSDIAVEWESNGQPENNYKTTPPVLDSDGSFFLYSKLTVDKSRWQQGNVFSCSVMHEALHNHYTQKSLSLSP
light: B2 light
notes: also called S267H
B11: M103205H795-SG176/M103202L889-SK1 (antibody, human IgG1, kappa)
heavy: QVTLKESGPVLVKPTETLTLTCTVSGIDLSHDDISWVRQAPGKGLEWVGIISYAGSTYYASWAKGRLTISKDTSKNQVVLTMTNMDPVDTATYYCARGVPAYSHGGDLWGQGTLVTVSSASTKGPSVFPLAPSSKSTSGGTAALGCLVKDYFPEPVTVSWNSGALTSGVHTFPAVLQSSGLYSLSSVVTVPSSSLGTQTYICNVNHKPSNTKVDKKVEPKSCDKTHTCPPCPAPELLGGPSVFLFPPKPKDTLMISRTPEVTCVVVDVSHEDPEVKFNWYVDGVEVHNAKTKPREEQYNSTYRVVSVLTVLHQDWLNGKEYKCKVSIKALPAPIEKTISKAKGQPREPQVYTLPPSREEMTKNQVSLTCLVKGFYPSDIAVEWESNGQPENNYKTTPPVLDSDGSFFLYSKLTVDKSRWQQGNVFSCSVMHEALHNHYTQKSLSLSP
light: B2 light
notes: also called N325I
B12: M103205H795-SG177/M103202L889-SK1 (antibody, human IgG1, kappa)
heavy: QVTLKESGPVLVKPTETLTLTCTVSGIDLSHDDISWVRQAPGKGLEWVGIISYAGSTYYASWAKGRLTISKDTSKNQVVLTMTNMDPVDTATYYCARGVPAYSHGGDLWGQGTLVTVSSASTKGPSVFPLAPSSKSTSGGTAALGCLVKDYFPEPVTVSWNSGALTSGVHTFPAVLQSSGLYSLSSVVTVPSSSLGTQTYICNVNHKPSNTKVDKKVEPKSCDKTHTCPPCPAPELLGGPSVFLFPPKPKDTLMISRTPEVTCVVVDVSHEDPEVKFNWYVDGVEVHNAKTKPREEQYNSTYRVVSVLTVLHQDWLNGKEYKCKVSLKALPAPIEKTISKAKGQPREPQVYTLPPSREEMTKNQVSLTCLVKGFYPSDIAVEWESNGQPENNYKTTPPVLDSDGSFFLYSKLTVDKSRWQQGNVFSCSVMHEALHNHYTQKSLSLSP
light: B2 light
notes: also called N325L
B13: M103205H795-SG178/M103202L889-SK1 (antibody, human IgG1, kappa)
heavy: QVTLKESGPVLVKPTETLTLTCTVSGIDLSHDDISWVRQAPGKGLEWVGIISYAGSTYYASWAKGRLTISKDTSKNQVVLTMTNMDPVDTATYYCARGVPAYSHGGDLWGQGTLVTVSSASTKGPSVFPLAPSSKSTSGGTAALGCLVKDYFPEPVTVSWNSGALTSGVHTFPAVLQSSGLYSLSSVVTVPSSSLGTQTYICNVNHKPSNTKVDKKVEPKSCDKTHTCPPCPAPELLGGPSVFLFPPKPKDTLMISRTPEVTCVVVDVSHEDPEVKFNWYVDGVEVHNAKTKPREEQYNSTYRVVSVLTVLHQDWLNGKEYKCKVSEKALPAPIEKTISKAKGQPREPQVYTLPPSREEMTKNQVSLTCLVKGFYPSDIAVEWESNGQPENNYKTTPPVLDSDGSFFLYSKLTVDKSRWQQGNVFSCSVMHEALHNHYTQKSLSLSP
light: B2 light
notes: also called N325E
B14: M103205H795-SG179/M103202L889-SK1 (antibody, human IgG1, kappa)
heavy: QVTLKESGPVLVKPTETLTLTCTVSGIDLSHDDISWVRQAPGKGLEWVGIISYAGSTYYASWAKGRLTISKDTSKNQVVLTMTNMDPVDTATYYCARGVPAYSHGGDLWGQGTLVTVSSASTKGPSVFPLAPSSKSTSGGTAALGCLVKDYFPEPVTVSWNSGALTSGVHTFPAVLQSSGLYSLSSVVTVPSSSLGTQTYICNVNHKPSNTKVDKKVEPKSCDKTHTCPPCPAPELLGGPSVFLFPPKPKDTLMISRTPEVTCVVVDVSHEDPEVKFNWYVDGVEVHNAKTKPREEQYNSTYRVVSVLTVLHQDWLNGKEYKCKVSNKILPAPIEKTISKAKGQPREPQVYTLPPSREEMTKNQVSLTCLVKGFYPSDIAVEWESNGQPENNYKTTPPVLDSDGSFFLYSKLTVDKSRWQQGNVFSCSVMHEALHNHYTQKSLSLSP
light: B2 light
notes: also called A327I

Legend:
[1] = molecular target: T1, Human latent myostatin; assay: SPR (BIACORE T200), 37 C, pH7.4, avidity condition (capture 185 RU), 1:1 fit; pH 7.4
Description: The kinetic parameters of anti-latent myostatin antibodies against human, cynomolgus monkey (cyno), and mouse latent myostatin were assessed at 37° C. at pH7.4 using a BIACORE® T200 instrument (GE Healthcare). ProA/G (Pierce) was immobilized onto all flow cells of a CM4 chip using amine coupling kit (GE Healthcare). Anti-latent myostatin antibody and analytes were prepared in ACES pH7.4 (20 mM ACES, 150 mM NaCl, 1.2 mM CaCl₂), 0.05% TWEEN® 20, 0.005% NaN₃). […] Then human, cyno, or mouse latent myostatin was injected at 3.125 to 50 nM prepared by two-fold serial dilution, followed by dissociation. The sensor surface was regenerated with 25 mM NaOH. Kinetic parameters were determined by processing and fitting the data to a 1:1 binding model using BIACORE® T200 Evaluation software, version 2.0 (GE Healthcare).
All experimental settings were the same as in Example 7, except that measurements were also performed in ACES pH5.8 buffer in addition to ACES pH7.4 condition. Some antibodies were only measured against human latent myostatin. Antibody capture level was aimed at 185 RU and 18.5 RU, for avidity and affinity assay, respectively. Kinetic parameters were determined using 1:1 Binding fitting using BIACORE® T200 Evaluation software, version 2.0 (GE Healthcare).

[2] = molecular target: T2, cynomolgus monkey FcγRIIb extracellular …; assay: SPR; FcgR bound per captured antibody, normalized to SG1
Description: (§1) The kinetic analysis of interactions between these antibodies and FcγR was carried out using BIACORE® T200 or BIACORE® 4000 (GE Healthcare). HBS-EP+ (GE Healthcare) was used as the running buffer, and the measurement temperature was set to 25° C. A chip produced by immobilizing Protein A. Protein A/G or mouse anti-human IgG kappa light chain (BD Biosciences) onto a Series S Sensor Chip CM4 or CM5 (GE Healthcare) by the amine-coupling method was used. […] After the measurement, the antibody captured on the chip was washed off by allowing reaction with 10 mM glycine-HCl, pH1.5 and 25 mM NaOH so that the chip was regenerated and used repeatedly. The sensorgrams obtained as measurement results were analyzed by the 1:1 Langmuir binding model using the BIACORE® Evaluation Software to calculate the binding rate constant ka (L/mol/s) and dissociation rate constant kd (l/s), and the dissociation constant KD (mol/L) was calculated from these values. […] Regarding such interactions, KD values were calculated using the following 1:1 binding model described in BIACORE® T100 Software Handbook BR1006-48 Edition AE.
(§2) The value of the amount of FcγR binding was obtained by dividing the amount of FcγR bound by the amount of each antibody captured.

[3] = molecular target: T3, cynomolgus monkey FcγRIIa2 …; assay: as above
Description: as §1, §2

[4] = molecular target: T4, cynomolgus monkey FcγRIIIaS …; assay: as above
Description: as §1, §2

[5] = molecular target: T5, cynomolgus monkey FcγRIIa3 …; assay: as above
Description: as §1, §2

[6] = molecular target: T6, cynomolgus monkey FcγRIIa1 …; assay: as above
Description: as §1, §2

Binder | Kd [1] | koff [1] | kon [1] | amount of FcgR binding (SG1 = 100) [2] | amount of FcgR binding (SG1 = 100) [3] | amount of FcgR binding (SG1 = 100) [4] | amount of FcgR binding (SG1 = 100) [5] | amount of FcgR binding (SG1 = 100) [6]
B1 | 0.163 nM | 0.000217 s⁻¹ | 1.33e+06 M⁻¹ s⁻¹ | – | – | – | – | –
B2 | – | – | – | 85 SG1 = 100 | 86 SG1 = 100 | 15 SG1 = 100 | 62 SG1 = 100 | 83 SG1 = 100
B3 | – | – | – | – | 10 SG1 = 100 | 5 SG1 = 100 | 17 SG1 = 100 | 10 SG1 = 100
B4 | – | – | – | 22 SG1 = 100 | 14 SG1 = 100 | 14 SG1 = 100 | 38 SG1 = 100 | 18 SG1 = 100
B5 | – | – | – | 28 SG1 = 100 | 16 SG1 = 100 | 13 SG1 = 100 | 30 SG1 = 100 | 21 SG1 = 100
B6 | – | – | – | 22 SG1 = 100 | 16 SG1 = 100 | 22 SG1 = 100 | 32 SG1 = 100 | 17 SG1 = 100
B7 | – | – | – | 18 SG1 = 100 | 15 SG1 = 100 | 12 SG1 = 100 | 21 SG1 = 100 | 16 SG1 = 100
B8 | – | – | – | 16 SG1 = 100 | 17 SG1 = 100 | 31 SG1 = 100 | 27 SG1 = 100 | 14 SG1 = 100
B9 | – | – | – | 12 SG1 = 100 | 14 SG1 = 100 | 24 SG1 = 100 | 21 SG1 = 100 | 13 SG1 = 100
B10 | – | – | – | 11 SG1 = 100 | 16 SG1 = 100 | 15 SG1 = 100 | 20 SG1 = 100 | 13 SG1 = 100
B11 | – | – | – | 16 SG1 = 100 | 15 SG1 = 100 | 20 SG1 = 100 | 19 SG1 = 100 | 14 SG1 = 100
B12 | – | – | – | 18 SG1 = 100 | 15 SG1 = 100 | 21 SG1 = 100 | 25 SG1 = 100 | 15 SG1 = 100
B13 | – | – | – | 26 SG1 = 100 | 21 SG1 = 100 | 36 SG1 = 100 | 29 SG1 = 100 | 22 SG1 = 100
B14 | – | – | – | 19 SG1 = 100 | 17 SG1 = 100 | 48 SG1 = 100 | 28 SG1 = 100 | 19 SG1 = 100

Reference: patent US20200317768A1 (published 2020)
